Experimental data reported in patent publication US20160017022A1.

Molecular target: EGFP-MAL stably expressed on CHO cells
Test: FACS, CHO cells stably expressing EGFP-MAL

## fluorescently labeled ETX (ETX^Alexa-647) (from UniProt Q02307 33-328) (ligand)
  double labeling of EGFP-MAL expressing cells: 100%
